The target of assay [1] is T1, TOM20-Human 胞质结构域蛋白(25-145) (human, UniProt Q15388 25-145).
T1 construct: range 25-145; A purification tag (Ni column) is implied but not described; also called TOM20胞质结构域
T1 sequence (looked up): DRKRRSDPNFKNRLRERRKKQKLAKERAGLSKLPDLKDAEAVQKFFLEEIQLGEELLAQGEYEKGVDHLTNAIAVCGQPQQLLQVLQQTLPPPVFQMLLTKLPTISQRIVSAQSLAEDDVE
As to the kind of experiment: SPR (Biacore), antigen immobilised on chip, nanobody as analyte. In general terms: Surface plasmon resonance follows binding to a sensor surface in real time, without labels.

The next assay deals with T2, TOM20-Mouse 胞质结构域 (mouse, UniProt Q9DCC8 25-145).
T2 construct: domain: 胞质结构域; also called TOM20(鼠)胞质结构域
T2 sequence (looked up): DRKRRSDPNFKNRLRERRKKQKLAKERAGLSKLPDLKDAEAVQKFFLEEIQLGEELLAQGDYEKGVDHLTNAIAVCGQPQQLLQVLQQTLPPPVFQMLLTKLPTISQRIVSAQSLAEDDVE
Described as above.

Assay [2] has as its target T1, TOM20-Human 胞质结构域蛋白(25-145). As to the kind of experiment: phage clone ELISA, crude phage nanobody extract on coated TOM20 against BSA control.

Experimental findings from CN114316057A (SHENZHEN PEOPLE HOSPITAL, dated 2022) are described below.

B1: P2B7号纳米抗体 (VHH)
VHH: AVQLVESGGGLVQAGGSLRLSCVASGSTFSNFVMGWYRQAPGKQRVLVATISSGGSTNYADSVKGRFTISRDNTKNTVYLQMNSLKPEDTSVYYCNARRGSVIVPTLAYDYWGQGTQVTVSS
notes: Alpaca naive-library nanobody expressed in E. coli with an HA tag for detection and purified on Ni resin; also called P2B7纳米抗体; TOM20纳米抗体; not shown: fused HA tag and vector-derived His tag (PET-14B or PET28a-sumo)
For B1, the figures for the Kd (in assay [1]; in the assay with TOM20-Mouse 胞质结构域) were 44.8 nM and 413 nM, respectively. Also, the TOM20/BSA ratio in assay [2] is ~3 fold.
